Changes are numbered by the printed parent chain. Names and notes keep the numbering of the source.
B1: IL13Rα2 (wild type) (receptor, human, UniProt Q14627 27-380, looked up)
chain: DTEIKVNPPQDFEIVDPGYLGYLYLQWQPPLSLDHFKECTVEYELKYRNIGSETWKTIITKNLHYKDGFDLNKGIEAKIHTLLPWQCTNGSEVQSSWAETTYWISPQGIPETKVQDMDCVYYNWQYLLCSWKPGIGVLLDTNYNLFYWYEGLDHALQCVDYIKADGQNIGCRFPYLEASDYKDFYICVNGSSENKPIRSSYFTFQLQNIVKPLPPVYLTFTRESSCEIKLKWSIPLGPIPARCFDYEIEIREDDTTLVTATVENETYTLKTTNETRQLCFVVRSKVNIYCSDDGIWSEWSDKQCWEGEDLSKKTLLRFWLPFGFILILVIFVTGLLLRKPNTYPKMIPEFFCDT
notes: whole, on cells; Used as endogenous protein in lysates of human CRC, GBM and OC cell lines and as transfected wild type in RKO cells; also called IL13Rα2 WT; wild-type IL13Rα2
B2: IL13Rα2 Tyr369Phe mutant (receptor, human, UniProt Q14627 27-380, looked up)
chain: B1 chain with Y343F
notes: whole, on cells; immunoprecipitated from lysates; also called Y369F mutated form; mutant Tyr369Phe

Assays:
[1] = target: T1, protein tyrosine phosphatase-1B (PTP1B) (human, UniProt P18031 1-435); assay: IL13Rα2 immunoprecipitation with mass spectrometry (U251 lysates) and reciprocal co-IP/Western blot in CRC, GBM and OC cell lines
T1 construct: Endogenous PTP1B of the cell lines, detected by co-immunoprecipitation, Western blot and mass spectrometry; also called PTPB1
T1 sequence (looked up): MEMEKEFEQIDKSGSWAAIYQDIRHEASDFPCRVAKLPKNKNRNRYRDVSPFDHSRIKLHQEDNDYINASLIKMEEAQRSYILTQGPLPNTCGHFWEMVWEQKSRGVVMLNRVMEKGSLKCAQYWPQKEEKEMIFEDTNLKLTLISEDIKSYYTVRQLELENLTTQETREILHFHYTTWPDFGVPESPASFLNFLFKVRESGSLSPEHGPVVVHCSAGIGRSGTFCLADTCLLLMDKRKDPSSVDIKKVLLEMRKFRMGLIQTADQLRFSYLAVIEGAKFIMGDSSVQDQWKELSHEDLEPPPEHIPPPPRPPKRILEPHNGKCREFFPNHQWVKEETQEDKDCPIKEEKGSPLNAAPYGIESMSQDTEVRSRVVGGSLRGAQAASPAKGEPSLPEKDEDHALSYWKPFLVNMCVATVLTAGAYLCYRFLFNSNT
Source text: (§1) FIG. 1. […] Protein position was tentatively assigned based on existing literature.
To characterize the protein interaction network of IL13Rα2, whole-cell lysates of the human GBM cell line U251 were immunoprecipitated and analyzed by mass spectrometry.

[2] = target: T1, protein tyrosine phosphatase-1B (PTP1B); assay: co-immunoprecipitation (IL13Rα2 IP, PTP1B Western blot) in RKO transfectants
Source text: as §1

Row | Binder | binding result [1] | binding result [2]
1 | B1 | binds | 
2 | B2 |  | no binding
